Paper PMC5839991 (Nature structural & molecular biology, 2018)

How the values were obtained:
[1] = target: mouse serum albumin, biotin labeled (Mus musculus, UniProt P07724, biotin (EZ-Link NHS-PEG4-Biotin)); experiment: SPR
[2] = target: recombinant human serum albumin from S. cerevisiae, biotin labeled (Homo sapiens, UniProt P02768, biotin (EZ-Link NHS-PEG4-Biotin)); experiment: SPR

Sequence of mouse serum albumin, biotin labeled (P07724 25-608): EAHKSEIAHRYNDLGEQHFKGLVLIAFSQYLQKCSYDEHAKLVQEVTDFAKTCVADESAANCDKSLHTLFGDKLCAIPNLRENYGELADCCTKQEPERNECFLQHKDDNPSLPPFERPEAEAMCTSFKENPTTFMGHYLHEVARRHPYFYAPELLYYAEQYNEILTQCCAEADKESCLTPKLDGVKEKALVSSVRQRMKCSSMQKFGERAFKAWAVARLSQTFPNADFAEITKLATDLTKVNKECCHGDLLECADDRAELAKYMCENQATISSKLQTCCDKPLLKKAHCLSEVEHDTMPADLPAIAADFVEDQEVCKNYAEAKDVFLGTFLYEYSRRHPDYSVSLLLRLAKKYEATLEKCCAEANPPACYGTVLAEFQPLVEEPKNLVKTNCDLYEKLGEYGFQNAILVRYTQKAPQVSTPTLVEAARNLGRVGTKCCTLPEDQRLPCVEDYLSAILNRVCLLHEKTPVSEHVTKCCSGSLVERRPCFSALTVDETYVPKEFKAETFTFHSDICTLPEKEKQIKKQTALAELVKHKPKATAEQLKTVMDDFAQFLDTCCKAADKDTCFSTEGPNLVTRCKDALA

B1: Nb.b201 (VHH)
VHH: QVQLQESGGGLVQAGGSLRLSCAASGYISDAYYMGWYRQAPGKEREFVATITHGTNTYYADSVKGRFTISRDNAKNTVYLQMNSLKPEDTAVYYCAVLETRSYSFRYWGQGTQVTVSS
Q: Does B1 bind [1]?
A: Result: no binding

Q: What about the Kd [2] of the same binder?
A: Its Kd is 430 nM.
